Laboratory results: article PMC2566858 (Nucleic Acids Research, 2008)
Numbering of substitutions follows the chain as printed. Read-outs that look alike come from different tables or passages of the source.

T1: rGyr_fl Y851F (full-length reverse gyrase) (Thermotoga maritima, UniProt O51934 1-1104, Y851F)
T1 sequence: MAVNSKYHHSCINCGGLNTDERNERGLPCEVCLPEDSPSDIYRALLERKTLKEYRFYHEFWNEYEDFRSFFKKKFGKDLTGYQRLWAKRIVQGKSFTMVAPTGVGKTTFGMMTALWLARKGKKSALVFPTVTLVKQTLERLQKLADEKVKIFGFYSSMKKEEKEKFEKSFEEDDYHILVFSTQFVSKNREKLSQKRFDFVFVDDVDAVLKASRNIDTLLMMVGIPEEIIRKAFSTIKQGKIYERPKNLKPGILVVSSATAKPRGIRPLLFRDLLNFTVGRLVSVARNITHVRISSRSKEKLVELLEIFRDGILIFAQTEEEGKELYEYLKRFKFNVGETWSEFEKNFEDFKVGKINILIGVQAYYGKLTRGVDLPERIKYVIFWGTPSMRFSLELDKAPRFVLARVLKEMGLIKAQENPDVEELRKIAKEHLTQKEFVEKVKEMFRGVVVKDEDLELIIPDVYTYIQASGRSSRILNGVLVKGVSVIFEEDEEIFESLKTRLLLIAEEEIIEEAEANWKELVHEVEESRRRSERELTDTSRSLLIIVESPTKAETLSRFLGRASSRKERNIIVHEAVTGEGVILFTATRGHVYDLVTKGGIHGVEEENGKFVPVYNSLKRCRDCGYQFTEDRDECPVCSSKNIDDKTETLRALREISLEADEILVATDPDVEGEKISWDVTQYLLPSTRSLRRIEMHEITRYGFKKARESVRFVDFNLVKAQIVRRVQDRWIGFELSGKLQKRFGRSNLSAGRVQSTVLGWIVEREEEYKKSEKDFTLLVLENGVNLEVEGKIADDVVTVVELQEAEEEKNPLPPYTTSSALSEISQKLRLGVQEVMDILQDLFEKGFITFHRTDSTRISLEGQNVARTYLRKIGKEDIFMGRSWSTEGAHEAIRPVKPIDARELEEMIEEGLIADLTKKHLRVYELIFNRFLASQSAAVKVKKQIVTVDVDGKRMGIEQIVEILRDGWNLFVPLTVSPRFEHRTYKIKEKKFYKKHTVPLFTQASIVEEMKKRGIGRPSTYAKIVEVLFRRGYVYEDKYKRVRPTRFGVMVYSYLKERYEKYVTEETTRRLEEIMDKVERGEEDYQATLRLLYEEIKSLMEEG

T2: rGyr_hel (reverse gyrase helicase-like domain) (Thermotoga maritima, UniProt O51934 59-541)
T2 sequence: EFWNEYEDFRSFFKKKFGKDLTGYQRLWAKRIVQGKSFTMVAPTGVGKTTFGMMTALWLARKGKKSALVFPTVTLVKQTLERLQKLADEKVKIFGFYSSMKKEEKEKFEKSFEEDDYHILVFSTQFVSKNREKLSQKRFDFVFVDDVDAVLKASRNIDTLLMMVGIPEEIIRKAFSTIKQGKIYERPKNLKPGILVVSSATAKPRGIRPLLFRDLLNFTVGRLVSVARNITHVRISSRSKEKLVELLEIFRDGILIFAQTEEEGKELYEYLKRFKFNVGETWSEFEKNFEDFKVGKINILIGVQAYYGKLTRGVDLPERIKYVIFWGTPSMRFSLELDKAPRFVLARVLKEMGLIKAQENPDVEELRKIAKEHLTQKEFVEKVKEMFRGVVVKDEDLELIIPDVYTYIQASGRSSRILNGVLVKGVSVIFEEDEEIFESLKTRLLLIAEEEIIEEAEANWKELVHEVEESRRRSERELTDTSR

T3: rGyr_hel K106Q (Thermotoga maritima, UniProt O51934 59-541, K106Q)
T3 sequence: T2 sequence with K48Q

B1: 60-base ssDNA (ssDNA)
DNA: AAGCCAAGCTTCTAGAGTCAGCCCGTGATATTCATTACTTCTTATCCTAGGATCCCCGTT
B2: 60 bp dsDNA (dsDNA)
DNA 1: B1 DNA
DNA 2: AACGGGGATCCTAGGATAAGAAGTAATGAATATCACGGGCTGACTCTAGAAGCTTGGCTT

Columns and labels:
Assay in all cases: fluorescence anisotropy
[1] = molecular target: T1, rGyr_fl Y851F (full-length reverse …)
[2] = molecular target: T2, rGyr_hel (reverse gyrase helicase-like …)
rGyr_hel K106Q [3] = molecular target: T3, rGyr_hel K106Q
[4] = molecular target: T2, rGyr_hel (reverse gyrase helicase-like …); remark: listed apart in the source
[5] = molecular target: T1, rGyr_fl Y851F (full-length reverse …); remark: listed apart in the source
rGyr_hel K106Q [6] = molecular target: T3, rGyr_hel K106Q; remark: listed apart in the source

Binder	Kd [1] [nM]	Kd [2] [nM]	Kd (rGyr_hel K106Q [3]) [nM]	Kd [4] [nM]	Kd [5] [nM]	Kd (rGyr_hel K106Q [6]) [nM]
B1	36 ± 1	920 ± 210	200 ± 20	600 ± 70	39 ± 1	
B2						1700 ± 200
